Tests used:
[1] = target: fibrillin-1 TB4-cbEGF23 domain pair (residues 1527–1647) (human) (UniProt P35555); assay: SPR
[2] = target: fibrillin-1 cbEGF22-TB4 domain pair (residues 1486–1605) (human) (UniProt P35555); assay: SPR

native αVβ3 integrin purified from human placental extract (from UniProt P05106 27-788) (receptor)
koff [1]: 0.0016 s⁻¹
fold difference in Ka against TB4-cbEGF23 [2]: 2 fold

Source: article PMC5582136
